Results on 1 substance are retold here after patent US6541623.

The assay has as its target Interleukin-1 receptor on human fibroblasts (NHDF, normal human dermal fibroblasts) (human). Nature of the assay: cell-based or functional assay.

Sequence of Interleukin-1 receptor on human fibroblasts (NHDF, normal human dermal fibroblasts) (human) (P14778 18-569): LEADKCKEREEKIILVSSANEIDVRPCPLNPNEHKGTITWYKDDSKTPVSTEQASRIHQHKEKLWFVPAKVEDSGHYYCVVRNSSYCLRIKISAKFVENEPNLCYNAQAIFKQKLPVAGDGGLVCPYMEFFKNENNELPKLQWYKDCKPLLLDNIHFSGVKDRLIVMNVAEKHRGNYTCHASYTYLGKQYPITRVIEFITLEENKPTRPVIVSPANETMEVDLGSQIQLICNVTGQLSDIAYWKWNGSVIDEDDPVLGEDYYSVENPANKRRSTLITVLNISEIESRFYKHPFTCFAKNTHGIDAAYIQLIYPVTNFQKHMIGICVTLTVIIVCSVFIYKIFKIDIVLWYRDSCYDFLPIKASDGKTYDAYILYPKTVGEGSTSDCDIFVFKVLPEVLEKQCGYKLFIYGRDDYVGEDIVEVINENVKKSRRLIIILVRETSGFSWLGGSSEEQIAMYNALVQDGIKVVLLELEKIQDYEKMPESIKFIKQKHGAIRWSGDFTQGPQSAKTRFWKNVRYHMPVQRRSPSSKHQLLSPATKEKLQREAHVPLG

On to “IL-1 Hy1 Receptor Antagonist, non-tagged / preparation not specified (from UniProt Q9UBH0 1-155) (ligand)”, for which the inhibition of IL-1β stimulated PGE2 production in CCD 1098 human fibroblast cells (PGE2 ELISA) lay within 40 to 60 % inhibition.
